Test results published in patent publication US20160003839A1 (NATIONAL UNIVERSITY OF IRELAND GALWAY, published 2016).

Target: T1, Gal-α-(1→3)-Gal target of the SPR experiment (ligand on the chip not stated)
T1 construct: also called target glycan
Assay: SPR (BIAcore), Kd from kon and koff; ligand on the chip not stated
Description: Dissociation constants (Kd) for the scFvs were calculated from the measured association (kon) and dissociation (koff) rate constants by using surface plasmon resonance (SPR) BIAcore instrumentation and software (GE).

B1: scFv-A4 (scFv)
scFv: QAALTQPSSVSTNPGGTVKITCSGGNGNYGWYQQKSPGSAPVTVIYSNNKRPSDIPSRFSGSKSGSTATLTITGVQVDDEAVYFCGAYDNTYVGVFGAGTTLTVLGQSSRSSSGGGSSGGGGSAVTLDESGGGLQTPGGGLSLVCKASGFTFSSYSMQWVRQTPGKGLEFVAGIGYSDSYTYFGPAVKGRATISRDNGQNTVRLQLNNLRAEDTATYYCARSADTIYGCTHPWCSADNIDAWGHGTEVIVSSTSGQAGQ
notes: Chicken scFv (VL-linker-VH) from a pComb3 phage library, expressed soluble in E. coli; It recognises the Gal-α-(1→3)-Gal glycan, not a protein surface
  Kd: 57.3 nM

B2: scFv-G12 (scFv)
scFv: QAALTQPSSVSANPGETVKITCSGGSYHYGWYQQKSPGSAPVTVIYSNNQRPSGIPSRFSGSTSDSTGTLTITGVQADDEAVYFCGSYDSSNTYAGIFGAGTTLTVLGQSSRSSSGGGSSGGGGSAVTLDESGGGFQTPGGALSLVCKASGFTFSSYSMQWVRQAPGKGLEFVAGIGNSDRYTYFGPAVKGRATISRDNGQSTLRLQLNNLRAEDTATYFCARSGDSGNGCTHPWCSADNINAWGHGTEVIVSSTSGQAGQ
notes: Chicken scFv (VL-linker-VH), expressed soluble in E. coli; It recognises the Gal-α-(1→3)-Gal glycan
  Kd: 18 nM

B3: scFv-A11 (scFv)
scFv: QAALTQPSSVSANPGETVKITCSGGGSYGGSYYYGWYQQKSPGSAPVTVIYSNDNRPSDIPSRFSGSTSGSTSTLTITGVQVDDEAVYYCGTYDSSYVGIFGAGTALTVLGQSSRSSGGGSSGGGGSAVTLDESGGGLQTPGGGLSLVCKASGFTFSSYSMQWVRQTPGKGLEFVAGIGYSDSYTYFGPAVKGRATISRDNGQNTVRLQLNNLRAEDTATYYCARSADTIYGCTHPWCSADNIDAWGHGTEVIVSSTSGQAGQ
notes: as for B2
  Kd: 8.04 nM
